T1: C-terminal domain (residues 421–837) of STRIP1, recombinant (UniProt Q5VSL9 421-837)
T1 sequence (looked up): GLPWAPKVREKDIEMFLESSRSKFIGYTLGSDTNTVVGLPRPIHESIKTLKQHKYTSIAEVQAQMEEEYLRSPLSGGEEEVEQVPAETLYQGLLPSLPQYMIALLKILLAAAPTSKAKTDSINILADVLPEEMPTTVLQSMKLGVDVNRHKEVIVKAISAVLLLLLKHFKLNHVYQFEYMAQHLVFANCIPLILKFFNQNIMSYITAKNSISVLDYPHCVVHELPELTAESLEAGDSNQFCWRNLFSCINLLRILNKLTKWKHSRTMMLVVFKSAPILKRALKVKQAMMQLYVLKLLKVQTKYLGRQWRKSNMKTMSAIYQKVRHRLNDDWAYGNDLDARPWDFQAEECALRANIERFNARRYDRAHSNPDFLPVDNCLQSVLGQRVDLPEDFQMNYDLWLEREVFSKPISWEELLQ

T2: FHA domain (residues 5–135) of SLMAP (human, UniProt Q14BN4 5-135)
T2 construct: also called SLMAP (FHA); SLMAP FHA domain; source: E. coli BL21 (DE3) CodonPlus, purified
T2 sequence (looked up): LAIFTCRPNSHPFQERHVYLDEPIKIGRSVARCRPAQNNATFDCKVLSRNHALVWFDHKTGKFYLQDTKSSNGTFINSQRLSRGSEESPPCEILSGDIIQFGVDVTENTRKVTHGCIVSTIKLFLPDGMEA

B1: MST2 (recombinant, wildtype) (enzyme, human, UniProt Q13188 1-491, looked up)
chain: MEQPPAPKSKLKKLSEDSLTKQPEEVFDVLEKLGEGSYGSVFKAIHKESGQVVAIKQVPVESDLQEIIKEISIMQQCDSPYVVKYYGSYFKNTDLWIVMEYCGAGSVSDIIRLRNKTLIEDEIATILKSTLKGLEYLHFMRKIHRDIKAGNILLNTEGHAKLADFGVAGQLTDTMAKRNTVIGTPFWMAPEVIQEIGYNCVADIWSLGITSIEMAEGKPPYADIHPMRAIFMIPTNPPPTFRKPELWSDDFTDFVKKCLVKNPEQRATATQLLQHPFIKNAKPVSILRDLITEAMEIKAKRHEEQQRELEEEEENSDEDELDSHTMVKTSVESVGTMRATSTMSEGAQTMIEHNSTMLESDLGTMVINSEDEEEEDGTMKRNATSPQVQRPSFMDYFDKQDFKNKSHENCNQNMHEPFPMSKNVFPDNWKVPQDGDFDFLKNLSLEELQMRLKALDPMMEREIEELRQRYTAKRQPILDAMDAKKRRQQNF
notes: MST2 (STK3), human; also called STK3; Hippo kinase MST2; source: E. coli BL21 (DE3) CodonPlus, purified
B2: GST-tagged MST2 (enzyme, human, UniProt Q13188 1-491, looked up)
chain: B1 chain
notes: MST2 (STK3), human; also called MST2/pMST2; source: E. coli BL21 (DE3) CodonPlus, purified; not shown: GST, N-terminal, kept
B3: SIKE1 second coiled-coil (CC2) region, residues 72–121 (domain or fragment, human, UniProt Q9BRV8 72-121, looked up)
chain: LLSQENTQIRDLQQENRELWISLEEHQDALELIMSKYRKQMLQLMVAKKA
notes: Homotetramer in the apo crystal, homodimer in the crystal with the STRN3 peptide; A Se-Met form was used for phasing; also called SIKE1 CC2; source: E. coli BL21 (DE3) CodonPlus, purified
B4: MST4 (recombinant) (enzyme)
chain: not shown
notes: MST4 (STK26), human; also called STK26; source: E. coli BL21 (DE3) CodonPlus, purified
B5: STRN3 fragment (residues 64–341), tag not told (domain or fragment, human, UniProt Q13033 64-341, looked up)
chain: TIPGILHYIQHEWARFEMERAHWEVERAELQARIAFLQGERKGQENLKKDLVRRIKMLEYALKQERAKYHKLKYGTELNQGDLKMPTFESEETKDTEAPTAPQNSQLTWKQGRQLLRQYLQEVGYTDTILDVRSQRVRSLLGLSNSEPNGSVETKNLEQILNGGESPKQKGQEIKRSSGDVLETFNFLENADDSDEDEENDMIEGIPEGKDKHRMNKHKIGNEGLAADLTDDPDTEEALKEFDFLVTAEDGEGAGEARSSGDGTEWDKDDLSPTAEVW
notes: source: E. coli BL21 (DE3) CodonPlus, purified
B6: MBP-tagged STRN3 fragment (residues 64–341) (domain or fragment, human, UniProt Q13033 64-341, looked up)
chain: B5 chain
notes: source: E. coli BL21 (DE3) CodonPlus, purified; not shown: MBP, N-terminal, kept
B7: STRN3 coiled-coil domain (CC, amino acid residues 64–145) (domain or fragment, human, UniProt Q13033 64-145, looked up)
chain: TIPGILHYIQHEWARFEMERAHWEVERAELQARIAFLQGERKGQENLKKDLVRRIKMLEYALKQERAKYHKLKYGTELNQGD
notes: also called STRN3 CC; source: E. coli BL21 (DE3) CodonPlus, purified
B8: MST4 kinase domain (residues 1–300) (domain or fragment)
chain: not shown
notes: MST4 (STK26), human, residues 1-300; also called N-terminal kinase domain of MST4; source: E. coli BL21 (DE3) CodonPlus, purified
B9: SIKE1 CC1 (residues 5–65) (domain or fragment, human, UniProt Q9BRV8 5-65, looked up)
chain: IEKILTDAKTLLERLREHDAAAESLVDQSAALHRRVAAMREAGTALPDQYQEDASDMKDMS
notes: SIKE1, human, residues 5-65; Homodimer within the 2:2 crystal complex; also called residues 5–65 of SIKE1; source: E. coli BL21 (DE3) CodonPlus, purified
B10: STRIP1 (765–837) (domain or fragment, UniProt Q5VSL9 765-837, looked up)
chain: QAEECALRANIERFNARRYDRAHSNPDFLPVDNCLQSVLGQRVDLPEDFQMNYDLWLEREVFSKPISWEELLQ
B11: MST2 middle linker region (residues 308–435) (domain or fragment, human, UniProt Q13188 308-435, looked up)
chain: ELEEEEENSDEDELDSHTMVKTSVESVGTMRATSTMSEGAQTMIEHNSTMLESDLGTMVINSEDEEEEDGTMKRNATSPQVQRPSFMDYFDKQDFKNKSHENCNQNMHEPFPMSKNVFPDNWKVPQDG
notes: also called linker region of MST2; source: E. coli BL21 (DE3) CodonPlus, purified
B12: MST2 kinase domain (residues 1–308) (domain or fragment, human, UniProt Q13188 1-308, looked up)
chain: MEQPPAPKSKLKKLSEDSLTKQPEEVFDVLEKLGEGSYGSVFKAIHKESGQVVAIKQVPVESDLQEIIKEISIMQQCDSPYVVKYYGSYFKNTDLWIVMEYCGAGSVSDIIRLRNKTLIEDEIATILKSTLKGLEYLHFMRKIHRDIKAGNILLNTEGHAKLADFGVAGQLTDTMAKRNTVIGTPFWMAPEVIQEIGYNCVADIWSLGITSIEMAEGKPPYADIHPMRAIFMIPTNPPPTFRKPELWSDDFTDFVKKCLVKNPEQRATATQLLQHPFIKNAKPVSILRDLITEAMEIKAKRHEEQQRE
notes: also called kinase domain of MST2; source: E. coli BL21 (DE3) CodonPlus, purified

For data set [1], the target named is T3, STRIP1 (full-length, His-tagged, insect cells) (UniProt Q5VSL9 1-837).
T3 construct: STRIP1, full length; His tag is TEV-cleavable; also called His-STRIP1; FAM40A; source: High Five insect cells (baculovirus), purified
In words: pull-down; GST pulldown: GST-tagged protein, partner and glutathione Sepharose mixed at 4 °C for 1 h in 20 mM HEPES (pH 7.5), 100 mM NaCl; eluted with 20 mM reduced glutathione; SDS-PAGE, Coomassie staining. The following applies: both partners purified.

In data set [2] the target is T3, STRIP1 (full-length, His-tagged, insect …). Briefly: pull-down; pulldown with the kinase dephosphorylated with λPPase and then autophosphorylated with ATP (and magnesium ion). Conditions: both partners purified.
Data set [3] concerns the molecule itself. In words: crystal structure; SIKE1 CC2 mixed with STRN3 peptide (166–190) at 1:1.2 molar ratio, 1.75 Å; 35% MPD, 0.1 M imidazole (pH 7.5), 16 °C.
Data set [4] deals with the molecule itself. In words: crystal structure; apo SIKE1 CC2, 1.5 Å; 0.1 M Tris (pH 8.5), 0.7 M ammonium tartrate dibasic, 16 °C.
For data set [5], the target named is B1. In words: pull-down; GST pulldown: GST-tagged protein, partner and glutathione Sepharose mixed at 4 °C for 1 h in 20 mM HEPES (pH 7.5), 100 mM NaCl; eluted with 20 mM reduced glutathione; SDS-PAGE, Coomassie staining. Conditions: both partners purified.
Data set [6] has as its target T3, STRIP1 (full-length, His-tagged, insect …). In words: pull-down; MBP pulldown: MBP-tagged protein, partner and amylose resin mixed at 4 °C for 1 h in 20 mM HEPES (pH 7.5), 100 mM NaCl; eluted with 20 mM maltose; SDS-PAGE, Coomassie staining. Conditions: both partners purified.
For data set [7], the target named is B8. In words: pull-down; pulldown with purified recombinant proteins shown in supplementary figures; whether GST or MBP and who carried the tag not told. The following applies: both partners purified.
For data set [8], the target named is T1, C-terminal domain (residues 421–837) of …. The description is as above. Conditions: both partners purified.
In data set [9] the target is T3, STRIP1 (full-length, His-tagged, insect …). The description is as above. The following applies: both partners purified.
Data set [10] concerns the molecule itself. Briefly: crystal structure; SIKE1 CC1-SLMAP CC1 complex reconstituted 1:1 and gel-filtered, 2.3 Å; 0.1 M sodium citrate (pH 5.5), 15% PEG 6000, 16 °C.
Data set [11] deals with B7. In words: ITC; iTC200, 25 °C, 20 mM HEPES (pH 7.5), 100 mM NaCl. The following applies: both partners purified.
The target in data set [12] is B3. In words: crystal structure; SIKE1 CC2 mixed with STRN3 peptide (166–190) at 1:1.2 molar ratio, 1.75 Å; 35% MPD, 0.1 M imidazole (pH 7.5), 16 °C. The following applies: both partners purified.
The target in data set [13] is B3. Briefly: ITC; iTC200, 25 °C, 20 mM HEPES (pH 7.5), 100 mM NaCl. The following applies: both partners purified.
For data set [14], the target named is T2, FHA domain (residues 5–135) of SLMAP. Briefly: pull-down; GST pulldown: GST-tagged protein, partner and glutathione Sepharose mixed at 4 °C for 1 h in 20 mM HEPES (pH 7.5), 100 mM NaCl; eluted with 20 mM reduced glutathione; SDS-PAGE, Coomassie staining. Conditions: both partners purified.

In the case of B1, the binding result in data set [1] was “binds”.
B2: in data set [2], the binding result is “binds”.
Broadly, the stoichiometry N is a count of units in the complex or per binding partner. As to B3, the entries for the “stoichiometry N” value in data set [3] and in data set [4] were 2 and 4, respectively.
Consider B4, for which, in data set [1], the binding result is reported as “binds”.
Turning to B5, the binding result in [5] is on record as “binds”.
On to B6, for which the binding result in data set [6] was “binds”.
B7: the binding result in data set [7], in [8], in data set [6] and in data set [5] was “binds” throughout.
As for B8, in [9], the binding result is on record as “binds”.
Take B9: the “stoichiometry N” value in [10] was found to be 2.
In general, Kd refers to the free concentration of one partner at which half of the binding sites on the other are occupied at equilibrium, for simple one-to-one binding. A lower Kd goes with a tighter complex. The molecule B10 showed a Kd in data set [11] of 1600 nM.
With QNSQLTWKQGRQLLRQYLQEVGYTD (peptide, UniProt Q13033 166-190, looked up) [STRN3 peptide (residues 166–190)], the “stoichiometry N” value in data set [12] is 2 SIKE1 CC2 per STRN3 peptide. Besides, in data set [13], binding was characterised by a dissociation constant (Kd) of 2900 nM.
As for B11, the binding result in data set [14] is reported as “binds”.
Turning to B12, the binding result in [6] is recorded as “binds”.

For the origin of these results see PMC6323126, “Architecture, substructures, and dynamic assembly of STRIPAK complexes in Hippo signaling” (Cell Discovery, 2019).
